Measurements published in the supplement of paper PMC12764529.
± gives the half width of the 95% confidence interval.

Key:
[1] = folding stability dG unfold (combined trypsin and chymotrypsin); higher = more stable
Outline: (§1)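 Mini-proteins designed to be under 80 residues and free of cysteine were carried in a PA-tagged cDNA display construct and digested with trypsin and with chymotrypsin. Each protease was applied at 11 threefold-diluted concentrations, alongside a no-protease condition, before sequencing. K50 came from Bayesian fitting of the sequencing counts, and unfolding free energy was obtained by comparing it with a sequence-predicted unfolded-state K50 and a shared folded-state K50, for each protease separately or for both together. Designs were retained only if their AlphaFold2 dimer inter-PAE exceeded 15.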

[2] = folding stability dG unfold from trypsin proteolysis; higher = more stable
Outline: as §1

[3] = folding stability dG unfold from chymotrypsin proteolysis; higher = more stable
Outline: as §1

Sequence | folding stability dG unfold [1] | folding stability dG unfold [2] | folding stability dG unfold [3]
SAGGSAGGSTPTEFAKNLNVTEVKYDPVKKTVRVIHEFEDYLVLVEYDPSTGEVRVEVFSKDESAGGSAGGS [r12_214_TrMRF] | 1.84 ± 0.24 kcal/mol | 1.4 ± 0.12 kcal/mol | 2.05 ± 0.12 kcal/mol
SAGGSAGGSTTLTVDLPFGPATVHITGLPDSFVAFIEFDNPPFRATATIKEISKNGIVIEDIDFSAGGSAGG [r6_982_TrMRF] | 2.1 ± 0.22 kcal/mol | 2.2 ± 0.086 kcal/mol | 1.9 ± 0.13 kcal/mol
SAGGSAGGSVITLPNGVKLVTVKVSRPELDETETVTVPLEGMTLEEIKERLKKEGYKEVVFLESAGGSAGGS [r12_792_JUSTAS] | 1.26 ± 0.077 kcal/mol | 1.19 ± 0.032 kcal/mol | 1.28 ± 0.036 kcal/mol
SAGGSAGGSVKPGEKVLVRVRNPATGRWEEVVATVNEDGSITIYNKETGKTETIPLKDIELVPSAGGSAGGS [r12_726_TrROS_Hall] | 4.37 ± 0.088 kcal/mol | 4.6 ± 0.17 kcal/mol | 4.25 ± 0.055 kcal/mol
SAGGSAGGSWMLMVKIEFPENGQERHFMLPPGMTIEDIADRLREDGAPIKDIEVQWMPLPPGDSAGGSAGGS [r12_955_TrROS] | 1.62 ± 0.072 kcal/mol | 1.47 ± 0.033 kcal/mol | 1.62 ± 0.086 kcal/mol
SAGGSAGGSWYLRIEYMNGKEREFPFPPDMPGQPAEEIADKLGSPNMKVEFYDPEGEPREFDISAGGSAGGS [r12_411_TrROS] | 0.726 ± 0.18 kcal/mol | 0.589 ± 0.071 kcal/mol | 0.754 ± 0.13 kcal/mol
SAGGSAGGTAEELARKLEEALREAGYEVEKIEVVRVERKGDKVTIEVRVTLPDGRKLELRIELDSAGGSAGG [r6_839_TrROS_Hall] | 3.67 ± 0.21 kcal/mol | 4.09 ± 0.3 kcal/mol | 3.22 ± 0.13 kcal/mol
SAGGSAGGTIMIQFPDMDSPEEAIDQAEFFINEFMKQGNPGKPIKVTIQDPKNGQQQTFEIPLESAGGSAGG [r6_238_TrROS] | -0.114 ± 0.16 kcal/mol | -0.935 ± 0.49 kcal/mol | 0.244 ± 0.16 kcal/mol
SAGGSAGGTITLPGVTVEITEENGTLTIRVTSPDGRTLTRTITLPAGETVTVTDANGKTVTVRLSAGGSAGG [r6_806_TrROS_Hall] | 3.18 ± 0.11 kcal/mol | 2.8 ± 0.073 kcal/mol | 3.34 ± 0.059 kcal/mol
SAGGSAGGTITVTPLPDGRELITYPEKNALVEIVKDPATGKETVIVYEDGEPKVISLEELKKKLSAGGSAGG [r6_534_JUSTAS] | 0.417 ± 0.079 kcal/mol | 0.359 ± 0.059 kcal/mol | 0.383 ± 0.021 kcal/mol
SAGGSAGGTIWFDNPEDVERVVKDLRQEFPPDNPIDIMIWGPGSMYVIEITPDKIKDVEVYPMDSAGGSAGG [r6_289_TrROS] | 0.598 ± 0.27 kcal/mol | 0.318 ± 0.082 kcal/mol | 0.683 ± 0.14 kcal/mol
SAGGSAGGTLSIEELKELFPEAEKIEAEEVELTFTLPNGKKVKAKYRLVTVYRDNKPILLLVPGSAGGSAGG [r6_138_TrMRF] | 2.97 ± 0.12 kcal/mol | 2.82 ± 0.17 kcal/mol | 2.97 ± 0.056 kcal/mol
SAGGSAGGTLTIDELKELFPDVTEVKIEEKEETYTDKNGKKRKVKTKVIKVKVNGKEVTIEVKESAGGSAGG [r6_138_TrROS_Hall] | 1.25 ± 0.19 kcal/mol | 1.96 ± 0.05 kcal/mol | 0.534 ± 0.13 kcal/mol
SAGGSAGGTPKLAETRKNGKKVLAPVEVDPETGVITVTPPDGTTEVVPASRPPPFIEEDPSLGSSAGGSAGG [r6_174_JUSTAS] | 1.03 ± 0.087 kcal/mol | -0.252 ± 0.042 kcal/mol | 1.44 ± 0.037 kcal/mol
SAGGSAGGVEPVVVGRVPVVVRDPATGELREAEILRALPDGTLFIRFPNGERAEIRGAPVLSLASAGGSAGG [r6_433_TrMRF] | 1.35 ± 0.086 kcal/mol | 1.07 ± 0.035 kcal/mol | 1.54 ± 0.096 kcal/mol
SAGGSAGGWYVRITTNNGNQISIHLEELGLPEESFKEMTEEDLAEYLSKLFPGRPIKIEPVPLPSAGGSAGG [r6_165_TrROS] | 3.14 ± 0.14 kcal/mol | 3.07 ± 0.14 kcal/mol | 3.35 ± 0.11 kcal/mol
SAGGSAGGYIVKIKMPKFPHVFIFPPEMPPKQFADEIRRRFGNPDAPITDITIQPVTPEELKKLSAGGSAGG [r6_122_TrROS] | 1.16 ± 0.12 kcal/mol | 0.787 ± 0.059 kcal/mol | 1.4 ± 0.12 kcal/mol
SAGGSAGILEKTIKLAEELGLPVVEAKVVKKKNKVYVFFKSKKSKKYVIEIDGDKITIKPYSVVKKSAGGSA [r15_901_TrMRF] | 2.68 ± 0.059 kcal/mol | 1.954 ± 0.014 kcal/mol | 2.99 ± 0.05 kcal/mol
SAGGSAGKITIPARVKITLTPPNGPTVTFDAIITRVEDNSIELILGNVPITIPPNAKNVTITSVEGSAGGSA [r15_510_TrMRF] | 1.49 ± 0.052 kcal/mol | 1.45 ± 0.018 kcal/mol | 1.53 ± 0.022 kcal/mol
SAGGSAGKTKIEIRPLPDGSYLVLVTSPDGSKSEFIADGPDIPLPELLKKLNLPPDIEVVNAELPESAGGSA [r15_167_TrMRF] | 2.98 ± 0.13 kcal/mol | 2.98 ± 0.12 kcal/mol | 3.05 ± 0.056 kcal/mol
SAGGSAGLAEAILREAASAGIPLENVRIVDVRAFVTPDAVVFRARIEYRLPNSTSLAYADAVVPAPSAGGSA [r15_863_TrMRF] | 1.69 ± 0.073 kcal/mol | 1.42 ± 0.026 kcal/mol | 1.82 ± 0.086 kcal/mol
